The results in this text go back to article PMC3132048, “Treatment of experimental adjuvant arthritis with a novel folate receptor-targeted folic acid-aminopterin conjugate” (Arthritis Research & Therapy, 2011).

“And” between values parts separate entries of the source, which are not always exact repeats. Equal values may be shown once.

For data set [1], the target named is T1, dihydrofolate reductase (DHFR) (Mus musculus, UniProt P00375).
T1 construct: endogenous in cells; host or cells: RAW264.7 cells (FR-positive subclone of ATCC TIB71)
T1 sequence (P00375 1-187): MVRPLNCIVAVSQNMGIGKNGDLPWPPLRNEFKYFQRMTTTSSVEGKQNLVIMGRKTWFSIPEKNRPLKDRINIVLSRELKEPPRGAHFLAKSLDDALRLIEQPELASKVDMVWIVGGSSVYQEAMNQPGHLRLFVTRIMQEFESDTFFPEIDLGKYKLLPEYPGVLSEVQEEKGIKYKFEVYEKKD
Briefly: Dihydrofolate reductase inhibition assay in RAW264.7 whole cell lysates. The format is cell-based, murine. The note with it: 100 nM plus 100-fold excess FA (10 μM), 2-hour pulse, 22-hour chase. As to the method:
RAW264.7 cells growing in FFRPMI medium in 10 cm cell culture dishes (BD Falcon, Lincoln Park, NJ, USA) were treated with EC0746 (100 nM), EC0746 (100 nM) plus 100-fold molar excess of FA (10 μM), or FA alone (10 μM). After a 2-hour exposure, the drug-containing media were replaced and the cells were allowed to incubate further for 22 hours in fresh FFRPMI medium (referred in the text as a 22-hour chase). Meanwhile, AMT and MTX were kept at 100 nM for the entire 24-hour incubation period. All cells were subsequently lysed in the radioimmunoprecipitation assay lysis buffer, and DHFR activities in the whole cell lysates were determined using a commercial DHFR assay kit (Sigma-Aldrich). This spectrophotometric assay monitors the enzymatic conversion of dihydrofolic acid to tetrahydrofolic acid by DHFR and the disappearance of the co-factor nicotinamide adenine dinucleotide phosphate at 340 nm. The results were normalized to the values of the untreated control cells.

Data set [2] is described as follows: Preliminary short-term toxicity / MTD in folate-deficient healthy rats. In kind it is in vivo, rat. The note with it: folate-deficient rats. As to the method:
The short-term toxicity and MTD of EC0746 and AMT were evaluated in healthy rats following the standard BIW subcutaneous dosing regimen used for efficacy studies. Further, these animals were put on a folate-deficient diet for ~20 days before treatment to match the folate deficiency status of AIA rats used for therapy. The folate-deficient but nonarthritic animals were thus given increasing doses of EC0746 and AMT for two consecutive weeks on a BIW basis. […] Standard hematologic and blood chemistry parameters were examined as needed along with histopathology.

For data set [3], the system named is cytokine/chemokine release by rat TG-macs. Briefly: Rat cytokine array analysis after LPS/IFNγ co-stimulation. In kind it is cell-based. The note with it: 100 nM, 2-hour pulse, 70-hour chase, LPS 5 μg/ml plus IFNγ 100 ng/ml last 24 hours. As to the method:
This analysis was performed on rat TG-macs to compare EC0746 against AMT and MTX for their abilities to inhibit cytokine production after LPS/IFNγ co-stimulation. Using our standard condition of 2-hour pulse plus a 70-hour chase period, rat TG-macs (harvested the day before) were given vehicle (media only), EC0746 (100 nM), EC0746 (100 nM) plus 100-fold molar excess of FA (10 μM), or FA alone (10 μM). For unconjugated base drugs, 100 nM AMT and MTX were present continuously for the entire 72-hour incubation period. Twenty-four hours prior to the end of incubation, LPS (5 μg/ml) and IFNγ (100 ng/ml) were added to the cells to stimulate cytokine production. The presence of cytokines/chemokines in the culture media was detected using a rat cytokine antibody array kit (R&D Systems) capable of detecting 29 analytes in duplicate spots. The total pixel intensity for each spot in the array was quantitated using the NIH ImageJ software, subtracted from the background, and averaged for each analyte.

The subject of data set [4] is TNFα production in RAW264.7 cells. Briefly: LPS-stimulated TNFα production (ELISA). The format is cell-based, murine. How it is done: RAW264.7 cells in 96-well plates (3.5 × 10^4 cells/well) were treated with 10-fold serial dilutions of EC0746 (≤1 μM) in FFRPMI medium without and with 100-fold molar excess of FA. After a 2-hour exposure, the drug-containing media were replaced and the cells were allowed to incubate further for 70 hours (referred in the text as a 70-hour chase). In comparison, the cells were also treated continuously with AMT for 72 hours. Four hours prior to the end of incubation, LPS was added to the treated cells at a final concentration of 100 ng/ml. Then 100 μl culture supernatants were collected for TNFα analysis by ELISA. The cell viability was assessed by adding XTT to the remaining media for an additional 4 hours following the manufacturer's instructions. To evaluation of a cytostatic effect, RAW264.7 cells seeded at 1 × 10^6 cells/well in six-well plates were subjected to 2-hour exposure and a 70-hour chase with 0, 0.1, 10, and 1000 nM EC0746 without and with excess FA. At the end of the incubation (no LPS added), the surviving cells (that is, still viable cells) were recovered and redistributed in equal numbers in fresh medium for an additional 72 hours. The cell proliferation was again assessed by the XTT assay. All results were expressed as the percentage absorbance (minus background) relative to the untreated control cells.
(ELISA stands for enzyme-linked immunosorbent assay.)

A short description of data set [5]: Plasma pharmacokinetics after single subcutaneous dose. The format is in vivo, rat. How it is done: Female Lewis rats with jugular vein catheters (Harlan Sprague Dawley) were used to assess the plasma pharmacokinetics of EC0746 and unconjugated AMT. The animals were divided into two main groups, one given a single dose of EC0746 s.c. and the second a single dose of AMT s.c., both at 500 nmol/kg. Whole blood samples (300 μl) were collected from three animals per time point at the following time points: 1 minute, 10 minutes, 30 minutes, 1 hour, 2 hours, 3 hours, 4 hours, and 8 hours after injection. The blood samples were placed into anticoagulant tubes containing 1.7 mg/ml K3EDTA and 0.35 mg/ml N-maleoyl-β-alanine (0.35 mg/ml) in a 0.15% acetic acid solution. Plasma samples were obtained by centrifugation for 3 minutes at ~2,000 × g and stored at -80°C. The amounts of EC0746 and AMT in the plasma and the two primary metabolites of EC0746 (AMT and AMT hydrazide) were determined by liquid chromatography/mass spectrometry/mass spectrometry.

For the compound `Nc1nc(N)c2nc(CNc3ccc(C(=O)N[C@@H](CCC(=O)NNC(=O)OCCSSC[C@H](NC(=O)[C@H](CCC(=O)NC[C@H](O)[C@@H](O)[C@H](O)[C@H](O)CO)NC(=O)[C@H](CCC(=O)O)NC(=O)[C@H](CCC(=O)NC[C@H](O)[C@@H](O)[C@H](O)[C@H](O)CO)NC(=O)[C@H](CCC(=O)O)NC(=O)[C@H](CCC(=O)NC[C@H](O)[C@@H](O)[C@H](O)[C@H](O)CO)NC(=O)CC[C@H](NC(=O)c4ccc(NCc5cnc6nc(N)[nH]c(=O)c6n5)cc4)C(=O)O)C(=O)O)C(=O)O)cc3)cnc2n1` [EC0746], the “DHFR inhibitory activity with excess FA” value in data set [1] is given as “blocked by excess FA”. The “Gastrointestinal-associated side effects at respective MTD doses” value in data set [2] (compared with AMT) was “less of the gastrointestinal-associated side effects than AMT”. The “Difference in toxicity versus AMT (less toxic)” value in data set [2] (s.c., ratio of MTDs) is ~ 40 fold and 40 fold. Besides, the “Number of released cytokines/chemokines (of ~19) showing FR-specific inhibition” value in data set [3] was 11. For the same compound, the IC50 in data set [4] (2-hour pulse, 70-hour chase, LPS 100 ng/ml last 4 hours, read-out: Relative 50% inhibitory concentration, TNFα after LPS stimulation) was about 1.6 nM. The “TNFα effect competitive by excess FA” value in data set [4] (100-fold molar excess FA) is given as 100%. Moreover, the “Active drug exposure/release (AMT plus AMT hydrazide) detected in plasma, based on AUC” value in data set [5] (EC0746 500 nmol/kg s.c., 8-hour collection period) is ~ 18%. Further, in data set [5] (after single s.c. dose of EC0746 500 nmol/kg, 8-hour collection, analyte = label), the “Area under the curve” value came out at 32.5 nmol·min/mL. The Elimination half-life in data set [5] (after single s.c. dose of EC0746 500 nmol/kg, analyte = label) is listed as ~ 35 minutes.
